Holding throughout (test): cell-based or functional assay
Assay [1] addresses STAT1 in interferon-treated human cells (human) (UniProt P42224).
Assay [2] has as its target STAT3-STAT1 heterodimer (human) (UniProt P40763).
Assay [3] concerns the target STAT3-STAT3 homodimer (human) (UniProt P40763).
Assay [4] has as its target STAT1 (from a transfected expression vector).
Assay [5] addresses STAT3 (from a transfected expression vector).

Chain of STAT1 (from a transfected expression vector) (P42224 2-750): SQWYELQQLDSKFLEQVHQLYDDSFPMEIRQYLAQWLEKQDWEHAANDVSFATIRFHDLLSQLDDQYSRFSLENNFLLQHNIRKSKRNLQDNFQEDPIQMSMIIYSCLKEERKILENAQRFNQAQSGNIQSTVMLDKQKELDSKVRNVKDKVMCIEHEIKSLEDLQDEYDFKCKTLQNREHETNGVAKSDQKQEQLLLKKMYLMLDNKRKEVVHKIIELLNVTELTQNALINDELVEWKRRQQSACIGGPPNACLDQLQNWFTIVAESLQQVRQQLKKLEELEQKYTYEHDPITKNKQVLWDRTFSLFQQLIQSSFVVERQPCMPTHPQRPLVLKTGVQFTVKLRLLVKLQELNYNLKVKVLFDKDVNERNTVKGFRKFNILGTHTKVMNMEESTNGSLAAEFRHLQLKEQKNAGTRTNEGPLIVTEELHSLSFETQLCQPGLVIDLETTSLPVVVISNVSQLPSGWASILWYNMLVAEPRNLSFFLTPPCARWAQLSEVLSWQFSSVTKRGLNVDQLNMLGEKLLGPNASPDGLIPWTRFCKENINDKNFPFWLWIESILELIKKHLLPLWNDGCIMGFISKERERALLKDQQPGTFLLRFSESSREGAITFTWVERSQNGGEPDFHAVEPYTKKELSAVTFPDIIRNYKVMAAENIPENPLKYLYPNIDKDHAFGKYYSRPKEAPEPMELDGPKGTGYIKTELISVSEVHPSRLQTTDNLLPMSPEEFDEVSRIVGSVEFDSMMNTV
Chain of STAT1 in interferon-treated human cells (human) (P42224 2-750 limits assumed): as the sequence (P42224 2-750) above
Chain of STAT3-STAT3 homodimer (human) (P40763 2-770 limits assumed): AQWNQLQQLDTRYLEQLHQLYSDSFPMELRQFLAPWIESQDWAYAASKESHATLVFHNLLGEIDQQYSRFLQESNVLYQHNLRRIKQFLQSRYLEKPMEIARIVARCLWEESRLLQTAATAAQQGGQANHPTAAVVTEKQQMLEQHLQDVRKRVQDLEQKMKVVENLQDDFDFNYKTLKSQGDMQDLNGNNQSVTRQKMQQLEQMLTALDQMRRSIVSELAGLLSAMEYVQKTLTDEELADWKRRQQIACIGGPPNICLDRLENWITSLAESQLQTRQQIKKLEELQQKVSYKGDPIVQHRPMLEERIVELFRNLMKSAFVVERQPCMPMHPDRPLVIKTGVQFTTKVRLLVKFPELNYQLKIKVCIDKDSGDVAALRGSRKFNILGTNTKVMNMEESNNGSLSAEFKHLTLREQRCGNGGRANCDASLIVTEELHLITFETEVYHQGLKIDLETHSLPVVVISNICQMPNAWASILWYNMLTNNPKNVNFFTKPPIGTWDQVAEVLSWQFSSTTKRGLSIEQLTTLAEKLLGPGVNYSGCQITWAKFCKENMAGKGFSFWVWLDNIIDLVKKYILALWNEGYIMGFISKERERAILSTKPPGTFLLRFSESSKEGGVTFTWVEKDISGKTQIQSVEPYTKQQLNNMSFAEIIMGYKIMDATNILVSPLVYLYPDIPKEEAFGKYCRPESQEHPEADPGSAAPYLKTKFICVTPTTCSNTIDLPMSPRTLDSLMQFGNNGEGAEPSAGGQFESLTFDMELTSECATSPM
Chain of STAT3-STAT1 heterodimer (human) (P40763 2-770 limits assumed, chain 1 of 2): as the sequence (P40763 2-770 limits assumed) above
Chain of STAT3-STAT1 heterodimer (human) (P42224 2-750 limits assumed, chain 2 of 2, further chain): as the sequence (P42224 2-750) above

B1: recombinant fusion protein of glutathione-S-transferase (GST) with PIAS1 (protein, not shown: a dimerising Fc or GST)
chain: MADSAELKQMVMSLRVSELQVLLGYAGRNKHGRKHELLTKALHLLKAGCSPAVQMKIKELYRRRFPQKIMTPADLSIPNVHSSPMPPTLSPSTIPQLTYDGHPASSPLLPVSLLGPKHELELPHLTSALHPVHPDIKLQKLPFYDLLDELIKPTSLASDNSQRFRETCFAFALTPQQVQQISSSMDISGTKCDFTVQVQLRFCLSETSCPQEDHFPPNLCVKVNTKPCSLPGYLPPTKNGVEPKRPSRPINITSLVRLSTTVPNTIVVSWTAEIGRNYSMAVYLVKQLSSTVLLQRLRAKGIRNPDHSRALIKEKLTADSDSEIATTSLRVSLLCPLGKMRLTIPCRALTCSHLQCFDATLYIQMNEKKPTWVCPVCDKKAPYEHLIIDGLFMEILKYCTDCDEIQFKEDGSWAPMRSKKVQEVTASYNGVDGCLSSTLEHQVASHNQSSNKNKKVEVIDLTIDSSSDEEEEEPPAKRTCPSLSPTSPLSNKGILSLPHQASPVSRTPSLPAVDTSYINTSLIQDYRHPFHMTPMPYDLQGLDFFPFLSGDNQHYNTSLLAAAAAAVSDDQDLLHSSRFFPYTSSQMFLDQLSAGGSTSLPATNGSSSGSNSSLVSSNSLRESHGHGVASRSSADTASIFGIIPDIISLD
In turn, B1 displayed a DNA binding activity in gel retardation assay, nuclear extracts of IFN-treated Daudi B cells in assay [1] of 45 ng.

B2: recombinant fusion protein of GST with PIAS3 (protein, not shown: a dimerising Fc or GST)
chain: MVMSFRVSELQVLLGFAGRNKSGRKHELLAKALHLLKSSCAPSVQMKIKELYRRRFPRKTLGPSDLSLLSLPPGTSPPVHPDVTMKPLPFYEVYGELIRPTTLASTSSQRFEEAHFTFALTPQQLQQILTSREVLPGAKCDYTIQVQLRFCLCETSCPQEDYFPPNLFVKVNGKLCPLPGYLPPTKNGAEPRGPAVRSTSHPWLDSQPLSPTPSLLIGHLSLDGITPCPCLVRQLTAGTLLQKLRAKGIRNPDHSRALIKEKLTADPDSEVATTSLPGVTHVPARKMRLTVPCRALTCAHLQSFDAALYLQMNEKKPTWTCPVCDKKAPYESLIIDGLFMEILNSCSDDDEIQFMEDGSWCPMKPKKEASEVCPPPGYGLDGLQYSAVQEGIQPESKKRVEVIDLTIESSSDEEDLPPTKKHCSPTSAAIPALPGSKGALTSGHQPSSVLRSPAMGTLGSDFLSSLPVHEYPPAFPLGADIQGLDLFSFLQTESQQYGPSVIISLDEQDTLGHFFQYRGTPSHFLGPLAPTLGSCHGSSTPAPPPGRVSSIVAPGSSLREGHGGPLPSGPSLTGCRSDVISLD
Take B2: the DNA-binding activity in mobility gel shift assay, IL6-treated HepG2 nuclear extracts in assay [2] and in assay [3] was 100 ng throughout.

B3: FLAG-tagged PIAS3 (protein, not shown: small tags and cut ends)
chain: B2 chain
For the molecule B3, the (4X)IRF-1 luciferase reporter in human 293 cells, IFN-α stimulation in assay [4] and in assay [5] was 1 µg throughout.
